Experimental data reported in PMC4888889, “Role of VicRKX and GlnR in pH-Dependent Regulation of the Streptococcus salivarius 57.I Urease Operon”.

Biological target: MalE (MBP) (UniProt P0AEX9 27-396)
Assay: EMSA; EMSA: 50 mM Tris-HCl pH 7.4, 50 mM KCl, 2 mM MgCl2, 100 ng poly(dI-dC), 0.5 ug BSA, 0.01 pmol probe, 4 C 30 min; DAPA: 10 mM Tris-HCl pH 7.6, 60 mM KCl, 5% glyc

B1: VicR box probe (dsDNA)
DNA 1: CTAATATGTAAATGTTGCAAAATTTCTGAA
DNA 2: TTCAGAAATTTTGCAACATTTACATATTAG
Q: Does B1 bind?
A: Result: no binding
